In patent publication US9969780:

Key:
[1] = target: oxidised Tat (HIV-1) (UniProt Q73370); experiment: ELISA; wells coated with oxidised Tat, antibody used for detection
[2] = target: HIV-1 Tat protein (recombinant, native, biologically active) (HIV-1) (UniProt Q73370); experiment: ELISA; wells coated with native Tat, antibody used for detection
[3] = target: HIV-1 Tat protein (recombinant, native, biologically active) (HIV-1) (UniProt Q73370); experiment: ELISA; plate coated with Tat, antibody used for detection
[4] = target: Tat (56-70) peptide (glutamine-rich region) (HIV-1); experiment: ELISA; plate coated with Tat peptide, antibody used for detection
[5] = target: Tat (83-102) peptide (C-terminal domain) (HIV-1); experiment: as above
[6] = target: Tat (21-58) peptide (cysteine, core, and basic regions) (HIV-1); experiment: as above
[7] = target: Tat (36-50) peptide (core region) (HIV-1); experiment: as above
[8] = target: Tat (1-20) peptide (N-terminal domain) (HIV-1); experiment: as above
[9] = target: Tat (73-86) peptide (HIV-1); experiment: as above
[10] = target: Tat (46-60) peptide (basic region-nuclear localisation signal) (HIV-1); experiment: as above
[11] = target: Tat (21-40) peptide (cysteine-rich region-transactivation domain) (HIV-1); experiment: as above
[12] = target: Tat (65-80) peptide (RGD sequence) (HIV-1); experiment: as above
[13] = target: Tat-cys22 (transactivation mutant, cysteine 22 substituted by glycine) (HIV-1); experiment: ELISA; wells coated with Tat-cys22, antibody used for detection
[14] = target: bovine serum albumin (bovine) (UniProt P02769); experiment: ELISA; uncoated (BSA-blocked) well incubated with Tat, detected with anti-Tat
Chain of bovine serum albumin (bovine) (P02769 25-607 limits assumed): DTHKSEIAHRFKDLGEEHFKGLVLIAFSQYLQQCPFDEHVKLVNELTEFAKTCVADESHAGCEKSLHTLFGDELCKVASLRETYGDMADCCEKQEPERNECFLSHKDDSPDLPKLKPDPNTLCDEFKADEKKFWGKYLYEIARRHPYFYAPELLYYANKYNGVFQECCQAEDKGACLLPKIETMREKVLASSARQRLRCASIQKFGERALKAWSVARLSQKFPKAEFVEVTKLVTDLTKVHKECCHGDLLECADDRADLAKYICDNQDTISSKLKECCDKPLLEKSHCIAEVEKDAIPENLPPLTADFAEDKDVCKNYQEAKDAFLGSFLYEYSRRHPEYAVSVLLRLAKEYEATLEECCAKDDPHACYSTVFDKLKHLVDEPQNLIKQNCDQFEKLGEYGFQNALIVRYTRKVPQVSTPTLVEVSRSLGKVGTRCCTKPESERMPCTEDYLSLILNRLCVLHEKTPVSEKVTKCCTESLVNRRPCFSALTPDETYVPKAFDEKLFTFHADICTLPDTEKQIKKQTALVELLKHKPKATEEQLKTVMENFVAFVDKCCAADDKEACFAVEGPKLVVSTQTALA

Substance	ELISA signal [1]	ELISA signal [2]	ELISA signal [3]	ELISA signal [4]	ELISA signal [5]	ELISA signal [6]	ELISA signal [7]	ELISA signal [8]	ELISA signal [9]	ELISA signal [10]	ELISA signal [11]	ELISA signal [12]	ELISA signal [13]	ELISA OD [14] [OD]
CTR isot. (isotype control antibody)	0.016	0.051	0.081	0	0	0.108	0	0.006	0.019	0.063	0.082	0	0.026	
HIV-1 Tat protein (recombinant, native, biologically active) (from UniProt Q73370 1-100)														0.431
monoclonal anti-CCR5 antibody (Pharmingen), directed against the CCR5 second extracellular loop	0.128	1.24	1.45	0.147	0	3	0	0	0	0.466	0	0	0.75	
